For one protein, Km results are on record in patent publication US4734420A, “Anti-hypertensive agents” (priority 1980, dated 1988).

Substrate in the series: CC(C)C[C@H](NC(=O)[C@H](Cc1cnc[nH]1)NC(=O)CNC(=O)c1ccccc1)C(=O)O
Put plainly: purified protein, by the assay type. Format: biochemical. To be noted: other: substrate hippuryl-His-Leu, human urinary ACE, pH 8.0. The source says: The role of ACE in the pathogenesis of hypertension has prompted a search for inhibitors of the enzyme that could act as antihypertensive drugs. See for example U.S. Pat. Nos. 3,891,616, 3,947,575, 4,052,511 and 4,053,651. […]. No. 4,046,889 to Ondetti et al., issued Sept. 6, 1977, and in scientific articles by Cushman, D. W. et al., Biochemistry 16, 5484 (1977), and by Ondetti, M. et al., Science 196, 441 (1977). […]. These factors include the source of enzyme, its purity, the substrate used and its concentration, and the composition of the assay buffer. All I50 data reported herein have been performed with the same assay system and same enzyme (human urinary ACE) and with an approximately 1/2 Km level of substrate and are therefore internally consistent. Discrepancies with data obtained by other workers may be observed. Indeed such discrepancies do exist in the literature, for unknown reasons. See, for example, the I50 values for BPP9a reported by Cushman, D. W., et al., Experientia 29, 1032 (1973) and by Dorer, F. E., et al., Biochim. Biophys. Acta 429, 220 (1976).
The inhibitory potency of N^α -[3-(L-α-glutamylthio)-2-D-methyl-propanoyl]-L-proline in vitro was measured in the following assay. […] The enzyme was assayed in 0.05M Hepes buffer, pH 8.0 containing 0.1M NaCl and 0.75M Na2 SO4. […]

B1: Human urinary ACE (Homo sapiens) (protein)
chain: LDPGLQPGNFSADEAGAQLFAQSYNSSAEQVLFQSVAASWAHDTNITAENARRQEEAALLSQEFAEAWGQKAKELYEPIWQNFTDPQLRRIIGAVRTLGSANLPLAKRQQYNALLSNMSRIYSTAKVCLPNKTATCWSLDPDLTNILASSRSYAMLLFAWEGWHNAAGIPLKPLYEDFTALSNEAYKQDGFTDTGAYWRSWYNSPTFEDDLEHLYQQLEPLYLNLHAFVRRALHRRYGDRYINLRGPIPAHLLGDMWAQSWENIYDMVVPFPDKPNLDVTSTMLQQGWNATHMFRVAEEFFTSLELSPMPPEFWEGSMLEKPADGREVVCHASAWDFYNRKDFRIKQCTRVTMDQLSTVHHEMGHIQYYLQYKDLPVSLRRGANPGFHEAIGDVLALSVSTPEHLHKIGLLDRVTNDTESDINYLLKMALEKIAFLPFGYLVDQWRWGVFSGRTPPSRYNFDWWYLRTKYQGICPPVTRNETHFDAGAKFHVPNVTPYIRYFVSFVLQFQFHEALCKEAGYEGPLHQCDIYRSTKAGAKLRKVLQAGSSRPWQEVLKDMVGLDALDAQPLLKYFQPVTQWLQEQNQQNGEVLGWPEYQWHPPLPDNYPEGIDLVTDEAEASKFVEEYDRTSQVVWNEYAEANWNYNTNITTETSKILLQKNMQIANHTLKYGTQARKFDVNQLQNTTIKRIIKKVQDLERAALPAQELEEYNKILLDMETTYSVATVCHPNGSCLQLEPDLTNVMATSRKYEDLLWAWEGWRDKAGRAILQFYPKYVELINQAARLNGYVDAGDSWRSMYETPSLEQDLERLFQELQPLYLNLHAYVRRALHRHYGAQHINLEGPIPAHLLGNMWAQTWSNIYDLVVPFPSAPSMDTTEAMLKQGWTPRRMFKEADDFFTSLGLLPVPPEFWNKSMLEKPTDGREVVCHASAWDFYNGKDFRIKQCTTVNLEDLVVAHHEMGHIQYFMQYKDLPVALREGANPGFHEAIGDVLALSVSTPKHLHSLNLLSSEGGSDEHDINFLMKMALDKIAFIPFSYLVDQWRWRVFDGSITKENYNQEWWSLRLKYQGLCPPVPRTQGDFDPGAKFHIPSSVPYIRYFVSFIIQFQFHEALCQAAGHTGPLHKCDIYQSKEAGQRLATAMKLGFSRPWPEAMQLITGQPNMSASAMLSYFKPLLDWLRTENELHGEKLGWPQYNWTPNSAR
notes: from tissue; host or cells: human urine
Broadly, the Km is the substrate concentration at which the rate is half of its maximum. Consider B1, for which the Km was found to be 200 µM.
